Here are results for one molecule from publication PMC8621148, “Determination of the Protein-Protein Interactions within Acyl Carrier Protein (MmcB)-Dependent Modifications in the Biosynthesis of Mitomycin” (Molecules, 2021).

For test [1], the target named is MitB (intact, updated open reading frame), glycosyltransferase (Streptomyces lavendulae NRRL 2564) (UniProt Q9WW09). Nature of the test: SPR; Biacore 8K, 25 °C; MitB (5000 RU) or MitF (3000 RU) coupled to a CM5 chip in 10 mM NaAc pH 4.0; holo-MmcB flowed over (2.7-43.2 µM on MitB, 0.7-21.6 µM on MitF).
The target of test [2] is T1, MitF, reductase (Streptomyces lavendulae NRRL 2564, UniProt Q9X5R6 1-257).
T1 construct: MitF, reductase of the mitomycin C biosynthetic gene cluster, Streptomyces lavendulae NRRL 2564; source: E. coli BL21(DE3), pET30a (pJQK414), purified (Ni-NTA, FPLC); not shown: His6, N-terminal, kept
T1 sequence (looked up): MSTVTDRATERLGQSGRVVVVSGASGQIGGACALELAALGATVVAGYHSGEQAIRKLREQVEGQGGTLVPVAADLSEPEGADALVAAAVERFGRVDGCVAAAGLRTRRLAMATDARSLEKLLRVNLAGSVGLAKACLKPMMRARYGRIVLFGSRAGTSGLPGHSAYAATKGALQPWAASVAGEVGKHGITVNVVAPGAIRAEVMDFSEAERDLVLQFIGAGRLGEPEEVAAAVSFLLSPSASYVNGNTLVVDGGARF
The test is described as above. The note with it: both partners purified.

B1: holo-MmcB (acyl carrier protein MmcB, tag-free) (natural protein, Streptomyces lavendulae NRRL 2564, UniProt Q9X5S0 1-93, looked up)
chain: METLTTDKIKDRLRKVLVDSLELSLDPSAVPDEGLVEKLGLDSINTIEFLIWVESEFGIEIADEDLSIKLIDSLDLLAGYVSERVNGVTAPAE
modifications: 4'-phosphopantetheine at Ser43 (holo-form)
notes: MmcB, acyl carrier protein of the mitomycin C biosynthetic gene cluster, Streptomyces lavendulae NRRL 2564; 93 amino acid residues; gene synthesised with codons optimised for E. coli; The methods name the holo form for both the pull-down and SPR; also called ACP; tag-free MmcB; not shown: His6, C-terminal, cleaved
Consider B1, for which, in test [1], the Kd came to 578 nM, the koff is 0.113 s⁻¹, the kon is 195000 M⁻¹ s⁻¹ and the stoichiometry N turned out to be 1. Further, the “stoichiometry N” value in test [2] amounted to 1.
